In assay [1] the test system is primate dyskinetic scores. The assay can be described thus: Primate dyskinesia scores. Particulars: with L-DOPA; n=4. The class given is in vivo. From the text:
FIG. 12. Plot of sum of primate dyskinesia scores (median) as a function of time (Fr=11.64, n=4; p<0.01, Friedman's test).
(§1) FIG. 18. […] Data are represented as median.

The next assay relates to PD disability. The assay can be described thus: Primate PD disability (anti-parkinsonian effect of L-DOPA). The following applies: with L-DOPA; n=4; p>0.05. Type of assay: in vivo.
Description: as §1

Assay [2] deals with dSPN glutamatergic synapses. The assay can be described thus: Spike-timing-dependent LTD induction (post-pre pairing) in dSPNs, ex vivo corticostriatal slices, perforated-patch or whole-cell recording. The class given is cell-based, mice. From the text:
Male C57Bl/6 and FVB mice expressing tdTomato or eGFP under control of either the Drd1 or Drd2 receptor regulatory elements were used. All the mice used for the study were hemizygous for these transgenes. For some experiments, D1-tdTomato BAC mice were crossed with a transgenic line expressing Cre recombinase under control of the ChAT promoter. All mice were 8-10 weeks of age before stereotaxic surgery. Animal use procedures were reviewed and approved by the Northwestern Institutional Animal Care and Use Committee.
Slices were then transferred to a holding chamber containing aCSF. After an incubation period at 34° C. for 30 min, the slices were then kept in the holding chamber at the room temperature for another 30 min before use.
Individual slices were transferred to a recording chamber and were continuously perfused (2-3 ml min^−1) with aCSF for the duration of the experiment. Experiments were performed in the dorsolateral striatum at elevated temperature (30-31° C.).
All the recordings were made using a MultiClamp 700 A amplifier, and signals were filtered at 2 kHz and digitized at 10 kHz. Data were excluded when the series resistance changed >20% over the time course of the experiment. […] Capacitance current was continuously monitored during perforation by applying a 5-10 mV pulse from a holding potential of −70 mV. The amplifier bridge circuit was adjusted to compensate for series resistance and continuously monitored during recordings. Electrode capacitance was also compensated. Data were excluded when the input resistance (Ri) changed >20% over the time course of the experiment.
Data analysis was conducted with Igor Pro 6 (Wavemetrics, Lake Oswego, Oreg.) and Clampfit 9 (Molecular Devices). EPSP amplitude was calculated from 50-60 sweeps immediately before the start of induction and 20-30 min after the end of induction. The change in EPSP amplitude was calculated by averaging EPSP values after the induction and normalized to the average baseline EPSP amplitude. Compiled data were expressed as mean±s.e.m. Statistical tests were performed using Excel (Microsoft, Redmond, Wash.) and SigmaStat (Systat, San Jose, Calif.). Non-parametric Mann-Whitney or Wilcoxon tests were used to assess the experiment results, using a probability threshold of 0.05.
(§2) To determine if M4Rs were modulating synaptic plasticity, a spike-timing-dependent plasticity (STDP) paradigm was used. […] Once identified, neurons were monitored and controlled with perforated-patch recording to preserve intracellular signaling mechanisms and to allow stable, long-term monitoring of synaptic strength (FIG. 1A).
Synaptic plasticity was induced by pairing local stimulation of glutamatergic afferent fibers with postsynaptic spikes evoked by short bursts of intracellular current injection that were repeated at 5 Hz (FIGS. 1B, 4A).

The subject of another assay is iSPNs. The assay can be described thus: Spike-timing-dependent LTD induction (post-pre pairing) in iSPNs, ex vivo slices. Type of assay: cell-based, mice. Particulars: MT3 100 nM. The method, then: Mice were deeply anesthetized intraperitoneally with a mixture of ketamine (50 mg kg−1) and xylazine (4 mg kg−1) and perfused transcardially with 5-10 ml of ice-cold artificial CSF (aCSF) comprising (in mM): 125 NaCl, 2.5 KCl, 1.25 NaH2PO4, 2.0 CaCl2, 1.0 MgCl2, 26 NaHCO3 and 10 glucose (305 mOsm l^−1). Parasagittal corticostriatal slices (250 μm) were cut in ice-cold external solution containing (mM) 110 choline chloride, 26 NaHCO3, 1.25 NaH2PO4, 2.5 KCl, 0.5 CaCl2, 7 MgCl2, 11.6 sodium ascorbate, 3.1 sodium pyruvate and 5 glucose (305 mOsm l^−1). Slices were then transferred to a holding chamber containing aCSF. After an incubation period at 34° C. for 30 min, the slices were then kept in the holding chamber at the room temperature for another 30 min before use.
as §2

Entries after “also recorded” stand apart in the source; their conditions may differ.

Take `Cc1nnc2sc(C(=O)NCc3ccc(-c4cccnc4F)cc3)c(N)c2c1C` [VU0476406]: the primate dyskinetic scores result in assay [1] is “reduction in primate dyskinetic scores”. The “anti-parkinsonian effect of L-DOPA on PD disability” value in the assay on PD disability was “did not occur at the expense of anti-parkinsonian effect of L-DOPA”.

B1: muscarinic toxin 3 (protein, UniProt P81031 1-65, looked up)
Muscarinic toxin 3: LTCVTKNTIFGITTENCPAGQNLCFKRWHYVIPRYTEITRGCAATCPIPENYDSIHCCKTDKCNE
For B1, the “LTD induction in dSPNs” value in assay [2] (MT3 100 nM with CNO) was “LTD was blunted”. Also, the “LTD induction in dSPNs (EPSP amplitude)” value in assay [2] (MT3 100 nM with physostigmine 10 μM + VU10010 5 μM, 20 repetitions) is “induction was blunted”; in assay [2] (post-pre pairing, MT3 100 nM along with SCH23390) it was “blocked induction of LTD; also recorded: LTD was disrupted”. Also, in the assay with iSPNs, the “LTD induction in iSPNs” value is reported as “LTD was induced”.
